The source of these data is publication PMC3323041 (The Journal of Biological Chemistry, 2012).

B1: Mdv1(94-314) K215A/K216A, containing the NTE and coiled coil (domain or fragment, S. cerevisiae, UniProt P47025 94-314, looked up)
chain: DNKTCFRMLTYISDDLLNEIPTKEGLKSDADGKLLTEGGENENLRKNASKKETSLFQGFKSYLPIAELAIENTERLNYDTNGTSGTVGAKDVMSKTNERDEIHTELPNFQDSFLIPPGVETAAISSSYSPSALKSFSQTLVNSLEFLNIQKNSTLSEIRDIEVEVENLRQKKEKLLGKIANIEQNQLLLEDNLKQIDDRLDFLEEYGLEVIEANSDENAED

The series “crystal structure” deals with the molecule itself. Kind of series: crystal structure.
Series [1] concerns the target B1. Kind of series: crystal structure.

For B1, the binding result in the series “crystal structure” is on record as “binds”.

B2: Yeast Fis1(1-129), lacking the transmembrane segment (domain or fragment, S. cerevisiae, UniProt P40515 1-129, looked up)
chain: MTKVDFWPTLKDAYEPLYPQQLEILRQQVVSEGGPTATIQSRFNYAWGLIKSTDVNDERLGVKILTDIYKEAESRRRECLYYLTIGCYKLGEYSMAKRYVDTLFEHERNNKQVGALKSMVEDKIQKETL
In the case of B2, the binding result in series [1] is recorded as “binds”.
